Values quoted from earlier work as cited in paper PMC4384115, “Molecular Recognition of PTS-1 Cargo Proteins by Pex5p: Implications for Protein Mistargeting in Primary Hyperoxaluria” (Biomolecules, 2015).

How the values were obtained:
[1] = molecular target: Carnitine acyl-transferase 1 PTS1 peptide (Homo sapiens)
[2] = molecular target: L-Bifunctional enzyme PTS1 peptide (Homo sapiens)
[3] = molecular target: 3-Hydroxy-3-methylglutaryl-CoA lyase PTS1 peptide (Homo sapiens)

For Pex5p pbd (from UniProt P50542), the Kd [1] is given as 59 nM, the Kd [2] is given as 1100 nM and the Kd [3] is given as 2000 nM.
